Publication PMC8110955, “A synthetic RNA editing factor edits its target site in chloroplasts and bacteria”

T1: MORF9 (UniProt Q9LPZ1 75-196, C85S;C187S)
T1 sequence: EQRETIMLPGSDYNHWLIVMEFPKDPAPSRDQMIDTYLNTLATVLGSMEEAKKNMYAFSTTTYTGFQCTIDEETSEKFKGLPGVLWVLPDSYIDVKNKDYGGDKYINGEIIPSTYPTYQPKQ


Biological target: T1, MORF9
Assay: EMSA; MORF9 alone, up to highest concentration; REMSA: 1 nM RNA, 2x buffer is 85 mM Tris, 165 mM HEPES, 200 mM NaCl, 12.5 mM DTT, 0.25 mM EDTA, 1.25 mg/mL heparin, 0.1 mg/mL BSA; 30 min at ambient temperature; 5% polyacrylamide gel; pH not stated
Conditions: protein: recombinant; tags: N-terminal His-TEV tag cleaved off; label: 5'-Cy5; single strand

| Binder | binding result |
| --- | --- |
| AUGUAUUACACGUGCAAAAUCUGAGA (ssRNA) [rpoA_REMSA (rpoA-78691)] | no binding |
| CAGCAACAGAAGCCCAAGCUCAUGGA (ssRNA) [clpP1_REMSA (clpP1-69942)] | no binding |
